Source: patent publication US20100093980A1 (Biogen, published 2010)
Positions count from the first letter of the chain named.

B1: Chimeric HP1/2 Fab (murine VH and VL domains) (Fab, V domains shown)
VH: EVQLQQSGAELVKPGASVKLSCTASGFNIKDTYMHWVKQRPEQGLEWIGRIDPASGDTKYDPKFQVKATITADTSSNTAWLQLSSLTSEDTAVYYCADGMWVSTGYALDFWGQGTTVTVSS
VL: SIVMTQTPKFLLVSAGDRVTITCKASQSVTNDVAWYQQKPGQSPKLLIYYASNRYTGVPDRFTGSGYGTDFTFTISTVQAEDLAVYFCQQDYSSPYTFGGGTKLEIK
notes: Fab fragment; Constant parts (CH1, CL) are not specified; detection was with goat anti-human IgG HRP conjugate; also called chimeric Fab
B2: Humanized HP1/2 Fab V24A_T32V (Fab, V domains shown)
VH: EVQLVQSGAEVKKPGATVKISCKASGFNIKDVYMHWVQQAPGKGLEWMGRIDPASGDTKYDPKFQVRVTITADTSTDTAYMELSSLRSEDTAVYYCATGMWVSTGYALDFWGQGTLVTVSS
VL: DIVMTQSPDSLAVSLGERATINCKASQSVTNDVAWYQQKPGQPPKLLIYYASNRYTGVPDRFSGSGSGTDFTLTISSLQAEDVAVYYCQQDYSSPYTFGQGTKVEIK
notes: Fab fragment; Constant parts are not specified
B3: HP1/2 Fab, straight CDR graft (VH CDR graft paired with VL CDR graft) (Fab, V domains shown)
VH: B2 VH with A24V, V32T
VL: B2 VL
notes: as for B2
B4: Humanized HP1/2 Fab F27Y_T32V_M96L (VH SEQ ID NO: 25) (Fab, V domains shown)
VH: B2 VH with A24V, F27K, M100L
VL: B2 VL
notes: as for B2
B5: Humanized HP1/2 Fab V24F_T32V (Fab, V domains shown)
VH: B2 VH with A24F
VL: B2 VL
notes: as for B2
B6: Humanized HP1/2 Fab V24S_F27Y_T32V (Fab, V domains shown)
VH: B2 VH with A24S, F27Y
VL: B2 VL
notes: as for B2

These binders were tested against T1, purified α4β1 VLA4 integrin (UniProt P13612 34-1032; P05556 21-798) (assay: ELISA, Fab on plate-coated purified VLA4, goat anti-human IgG HRP detection).
T1 construct: Purified VLA4 coated on the plate at 1 ug/ml; also called α4β1 integrin
Procedure: In this assay, 1 ug/ml of purified VLA4 (in 50 mM NaHCO₃ buffer (pH 9.2) containing 10 ug/ml BSA) was coated on a 96-well (100 ul/well) Corning Easy-wash plate and incubated overnight at 4° C. Following incubation, the plate was blocked with 150 ul/well of blocking buffer (50 mM Tris-HCl pH7.5, 150 mM NaCl and 2% Dry Milk) for 60 minutes at room temperature. The plated was then washed four times with TBS Washing buffer (50 mM Tris-HCl pH 7.5, 150 mM NaCl, 0.05% Tween-20). Dilutions of each HP1/2 Fab to be tested were prepared in binding buffer (TBS buffer containing 2% Dry Milk) and 100 ul of each dilution was added to the designated wells (100 ul of TBS assay buffer was used as blank control). The plate was then incubated for 60 minutes at room temperature, and then washed four times with TBS Washing buffer. The detection antibody (goat anti-human IgG HRP conjugate) was added at 100 ul/well and the plated was again incubated at room temperature for 60 minutes and washed four times with TBS Washing buffer beforeadding 100 ul/well HRP Substrate buffer and incubating another 30-60 minutes. To stop the reaction, 100 ul of 1 NH2SO4 was added to each well. The plate was read in a Molecular Devices ELISA plate reader at […], and the data was analyzed using Softmax software and EC50 values calculated by GraphPad Prism 4. The EC50 values observed for the test Fab fragments with VH and VL domains are tabulated in […]

T1 sequence (P13612 34-1032, form in doubt, chain 1 of 2): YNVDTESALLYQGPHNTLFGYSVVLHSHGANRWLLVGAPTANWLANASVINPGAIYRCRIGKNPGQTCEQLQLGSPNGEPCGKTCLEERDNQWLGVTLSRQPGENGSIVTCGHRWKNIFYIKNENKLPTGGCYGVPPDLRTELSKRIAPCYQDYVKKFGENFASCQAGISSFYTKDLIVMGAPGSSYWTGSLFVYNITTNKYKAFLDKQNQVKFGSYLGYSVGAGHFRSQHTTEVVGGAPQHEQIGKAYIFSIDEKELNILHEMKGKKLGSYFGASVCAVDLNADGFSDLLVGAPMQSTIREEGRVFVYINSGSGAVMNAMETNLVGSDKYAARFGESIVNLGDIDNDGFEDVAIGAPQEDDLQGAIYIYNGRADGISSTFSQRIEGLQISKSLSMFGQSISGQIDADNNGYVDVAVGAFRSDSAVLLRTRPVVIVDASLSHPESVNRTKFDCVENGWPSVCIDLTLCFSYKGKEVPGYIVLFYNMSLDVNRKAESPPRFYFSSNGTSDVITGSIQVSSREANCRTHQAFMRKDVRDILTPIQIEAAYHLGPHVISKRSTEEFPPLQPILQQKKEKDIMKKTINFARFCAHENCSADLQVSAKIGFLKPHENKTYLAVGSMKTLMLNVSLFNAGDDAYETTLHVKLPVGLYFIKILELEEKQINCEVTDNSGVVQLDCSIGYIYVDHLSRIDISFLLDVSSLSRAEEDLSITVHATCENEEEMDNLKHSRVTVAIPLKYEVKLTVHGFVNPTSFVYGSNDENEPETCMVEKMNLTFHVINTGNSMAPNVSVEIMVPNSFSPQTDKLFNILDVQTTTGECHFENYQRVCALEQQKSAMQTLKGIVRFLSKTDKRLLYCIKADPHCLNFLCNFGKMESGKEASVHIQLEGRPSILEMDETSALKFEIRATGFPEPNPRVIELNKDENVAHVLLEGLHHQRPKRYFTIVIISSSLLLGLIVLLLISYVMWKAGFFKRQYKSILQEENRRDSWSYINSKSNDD
T1 sequence (P05556 21-798, form in doubt, chain 2 of 2): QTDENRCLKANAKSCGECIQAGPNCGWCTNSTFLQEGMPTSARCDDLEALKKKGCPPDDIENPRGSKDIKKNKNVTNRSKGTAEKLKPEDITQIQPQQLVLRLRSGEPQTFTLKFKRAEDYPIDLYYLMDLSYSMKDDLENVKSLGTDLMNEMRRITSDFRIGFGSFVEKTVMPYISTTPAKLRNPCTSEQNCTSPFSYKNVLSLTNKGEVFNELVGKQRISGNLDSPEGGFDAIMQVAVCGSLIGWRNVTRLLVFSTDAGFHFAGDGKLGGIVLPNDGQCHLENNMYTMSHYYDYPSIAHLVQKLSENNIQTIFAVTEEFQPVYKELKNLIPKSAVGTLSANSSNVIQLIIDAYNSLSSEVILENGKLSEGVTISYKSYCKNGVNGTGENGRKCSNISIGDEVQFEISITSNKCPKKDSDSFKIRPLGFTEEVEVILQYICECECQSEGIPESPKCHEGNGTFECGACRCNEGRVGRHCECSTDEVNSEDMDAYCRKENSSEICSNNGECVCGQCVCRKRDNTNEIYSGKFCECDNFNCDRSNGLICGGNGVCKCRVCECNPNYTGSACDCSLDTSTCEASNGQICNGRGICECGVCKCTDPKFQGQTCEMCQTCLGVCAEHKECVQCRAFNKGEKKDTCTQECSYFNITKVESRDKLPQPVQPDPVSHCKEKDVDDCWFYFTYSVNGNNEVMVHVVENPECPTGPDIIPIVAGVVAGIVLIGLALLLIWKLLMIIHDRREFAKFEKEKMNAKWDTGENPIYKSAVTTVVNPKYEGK

Row | EC50 | Binder
1 | 0.052 nM | B1
2 | 0.066 nM | B2
3 | 1.1 nM | B3
4 | 0.14 nM | B4
5 | 0.13 nM | B5
6 | 0.032 nM | B6
